The text below walks through data of US6150515, “Tat-SF: cofactor for stimulation of transcriptional elongation by HIV-1 Tat” (Massachusetts Institute of Technology, dated 2000).

The assay has as its target HIV-1 Tat, recombinant wild type Tat protein (HIV-1, UniProt P04608). Put plainly: cell-based or functional assay.

B1: Tat-Stimulatory Factor protein Tat-SF1 (pp140) (other)
chain: MSGTNLDGNDEFDEQLRMQELYGDGKDGDTQTDAGGEPDSLGQQPTDTPYEWDLDKKAWFPKITEDFIATYQANYGFSNDGASSSTANVEDVHARTAEEPPQEKAPEPTDARKKGEKRKAESGWFHVEEDRNTNVYVSGLPPDITVDEFIQLMSKFGIIMRDPQTEEFKVKLYKDNQGNLKGDGLCCYLKRESVELALKLLDEDEIRGYKLHVEVAKFQLKGEYDASKKKKKCKDYKKKLSMQQKQLDWRPERRAGPSRMRHERVVIIKNMFHPMDFEDDPLVLNEIREDLRVECSKFGQIRKLLLFDRHPDGVASVSFRDPEEADYCIQTLDGRWFGGRQITAQAWDGTTDYQVEETSREREERLRGWEAFLNAPEANRGLSVQILSLLRKAGPSRARHFSEHPSTSKMNAQETATGMAFEEPIDEKKFEKTEDGGEFEEGASENNAKESSPEKEAEEGCPEKESEEGCPKRGFEGSCSQKESEEGNPVRGSEEDSPKKESKKKTLKNDCEENGLAKESEDDLNKESEEEVGPTKESEEDDSEKESDEDCSEKQSEDGSEREFEENGLEKDLDEEGSEKELHENVLDKELEENDSENSEFEDDGSEKVLDEEGSEREFDEDSDEKEEEEDTYEKVFDDESDEKEDEEYADEKGLEAADKKAEEGDADEKLFEESDDKEDEDADGKEVEDADEKLFEDDDSNEKLFDEEEDSSEKLFDDSDERGTLGGFGSVEEGPLSTGSSFILSSDDDDDDI
modifications: phosphorylated by its associated kinase in the kinase reactions (gamma-32P ATP); sites not stated
Take B1: the “fold activation by Tat of an HIV-1 LTR-CAT reporter (pBennCAT) in HeLa cells co-transfected with pSV-Tat-SF1, relative to empty vector” value was determined as 5.2 fold.
